Measurements as given in patent US20200024330A1.

Key:
Assay in all cases: cell-based or functional assay
[1] = target: HIV-1 93IN905 envelope glycoprotein (Env) on pseudovirus (HIV-1)
[2] = target: HIV-1 92RW020 envelope protein (Env) on pseudovirus (HIV-1)
[3] = target: HIV-1 MGRM-C-022 Env (HIV-1)
[4] = target: HIV-1 Env of pseudovirus THR0.18 (Acute), clade B (HIV-1)
[5] = target: HIV-1 Env of pseudovirus MGRM-Chronic-B-003, clade B (HIV-1)
[6] = target: HIV-1 MGRM-F1-021 Env (pseudovirus) (HIV-1)
[7] = target: HIV-1 92RW024 envelope glycoprotein (Env) on pseudovirus (HIV-1)
[8] = target: HIV-1 Env of isolate MGRM-D-016 (clade D) (HIV-1)
[9] = target: HIV-1 Env of pseudovirus 6535.3 (Acute), clade B (HIV-1)
[10] = target: HIV-1 IAVI-C22 envelope protein (Env) on pseudovirus (HIV-1)
[11] = target: HIV-1 MGRM-C-009 Env (HIV-1)
[12] = target: HIV-1 Env of pseudovirus 92BR020, clade B (HIV-1)
[13] = target: HIV-1 MGRM-C-012 Env (HIV-1)
[14] = target: HIV-1 Env of isolate MGRM-G-027 (clade G pseudovirus) (HIV-1)

1443_C16 (PG16) (TCN-116) (antibody), sequence (VH): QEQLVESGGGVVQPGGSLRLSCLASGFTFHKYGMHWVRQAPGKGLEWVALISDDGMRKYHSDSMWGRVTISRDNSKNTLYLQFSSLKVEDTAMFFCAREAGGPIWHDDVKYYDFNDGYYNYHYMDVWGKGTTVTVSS
1443_C16 (PG16) (TCN-116) (antibody), sequence (VL): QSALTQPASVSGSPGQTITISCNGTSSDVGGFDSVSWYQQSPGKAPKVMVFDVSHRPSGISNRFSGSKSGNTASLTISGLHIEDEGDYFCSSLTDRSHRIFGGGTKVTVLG

| Substance | IC90 (pseudovirus neutralization) [1] [µg/mL] | neutralization IC50 [2] [µg/mL] | IC50 [3] [µg/mL] | IC50 (µg/ml), pseudovirus neutralization [4] [µg/mL] | IC50 (µg/ml), pseudovirus neutralization [5] [µg/mL] | IC50 (µg/ml), pseudovirus neutralization [6] [µg/mL] | IC50 (µg/ml), pseudovirus neutralization [7] [µg/mL] | IC50 (µg/ml), pseudovirus neutralization [8] [µg/mL] | IC50 (µg/ml), pseudovirus neutralization [9] [µg/mL] | neutralization IC50 [10] [µg/mL] | IC50 [11] [µg/mL] | IC50 (µg/ml), pseudovirus neutralization [12] [µg/mL] | IC50 [13] [µg/mL] | IC50 (µg/ml), pseudovirus neutralization [14] [µg/mL] |
| --- | --- | --- | --- | --- | --- | --- | --- | --- | --- | --- | --- | --- | --- | --- |
| 2F5 (antibody) | > 50 | 3.37 | > 50 | > 50 | 1 | 1.37 | 8.22 | 9.85 | 2.76 | > 50 | > 50 | > 50 | > 50 | 0.28 |
| 2G12 (antibody) | > 50 | 0.56 | > 50 | > 50 | 0.06 | 14.1 | > 50 | > 50 | 3.85 | > 50 | > 50 | 4.84 | > 50 | > 50 |
| 1443_C16 (PG16) (TCN-116) (antibody) | > 50 | 0.004 | 0.25 | 1.34 | 0.19 | > 50 | 0.08 | 0.02 | 36.9 | 0.0687 | > 50 | > 50 | 0.48 | 0.01 |
| 4E10 (antibody) | 12.8 | 3.38 | 5.71 | 4.68 | 3.5 | 1.87 | 8.88 | 15.4 | 1.23 | 1.02 | 0.56 | > 50 | 0.44 | 1.19 |
